Laboratory results from the nanobody polyreactivity screen of Harvey et al. (2022).

Experiment: yeast display, Sf9 membrane polyspecificity reagent, FACS + sequencing; frameworks hold sequencing errors
Outline: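 Sorting gates, low and high (top ~1%), were placed on anti-HA fluorescence to track expression and on streptavidin fluorescence to track reagent binding. A clone's polyreactivity label is taken from the gate it came out of. The reagent was 10% biotinylated, detergent-solubilized Sf9 membrane, applied for 1 hour at 4 °C to galactose-induced yeast display cells.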

Row | Sequence | polyreactivity (PSR sort gate)
1 | QVQLVESGGGLVQAGGSLRLICAASGRIFSLYAMGWYRQAPGKERELVAAITWSSGSTYYADSVKGRFTISRDNAKNTVYLQMNSLKPEDTAVYYCNAVWRTRDYDYWGQGTQVTVSS | low polyreactivity
2 | QVQLVESGGGLVQAGGSLRLICAASGRIFYDNALGWYRQAPGKERELVAAISESGTSTYYADSVKGRFTISRDNAKNTVYLQMNSLKPEDTAVYYCAAYFTWNRKVFYYWGQGTQVTVSS | high polyreactivity
3 | QVQLVESGGGLVQAGGSLRLICAASGRIWVNAMGWYIQAPGKQREFVAAISTSSASTYYADSVKGRFTISRDNAKNTVYLQMNSLKPEDTAVYYCAARYLGKKYYYWGQGTQVTVSS | high polyreactivity
4 | QVQLVESGGGLVQAGGSLRLICAASGRPFTYNMGWYRQAPGKERELVAANDLRRLCEGALHNFTRQCEEYRLFTDVQPETGRYPVYYCNADPAWIWYTFDYWGQGTQVTVSS | low polyreactivity
5 | QVQLVESGGGLVQAGGSLRLICAASGRTCRTYTMGLYRQATGKEREFVAAITSSGASTYYADSVKGRFTISRDKAKNTVYLQMNSLKPEDTAVYYCAARPRPRSANGMYYWGQVTQVTVSS | high polyreactivity
6 | QVQLVESGGGLVQAGGSLRLICAASGRTFAYYAMGWYRQAPGKERELVAAISSAGRTYYADSVKGRFTISRDNAKNTVYLHMNSLKPEDTSDYYCAVRWLTQFNGRYGSWGQGTQVTVSS | high polyreactivity
7 | QVQLVESGGGLVQAGGSLRLICAASGRTFGYYTMGWYRPAPGKERELVARINYIGSSTYYADSVKGRFTISRDNAKNTVYLQMNSLKPEDTAVYYCNADNARGRSGVRRYYWGQGTQVTVSS | high polyreactivity
8 | QVQLVESGGGLVQAGGSLRLICAASGRTFPYNAMGWYRQAPGKERELVAAISSGTRTDYADSVKGRFTISRDNAKNTVYLQMNSLKPEDTAVYYCAADYYHYLWRAYGFDYWGQGTQVTVSS | high polyreactivity
9 | QVQLVESGGGLVQAGGSLRLICAASGRTFRYYAMGWYRQAPGKERELVAAISASGGSTFYADSVKGRFTISRDNAKNTVYLQMNSLKPEDTAVYYCAAYHYSVFPYKQYDYWGQGTQVTVSS | high polyreactivity
10 | QVQLVESGGGLVQAGGSLRLICAASGRTFRYYAMGWYRQAPGKERELVASISDGGSTNYADSVKGRFTISRDNAKNTVYLQMNSLKPEDTAVYYCNAKAYVWYLYDEFGYWGQGTQVTVSS | low polyreactivity
11 | QVQLVESGGGLVQAGGSLRLICAASGRTFRYYTMGWYRQAPGKERELVAAISWRGGSTYYADSVKGRFTISRDNAKNTVYLQMNSLKPEDTAVYYCAAKRPKRYNEGYYWGQGTQVTVSS | high polyreactivity
12 | QVQLVESGGGLVQAGGSLRLICAASGRTFTHNAMGWSRQAPGKERELVAGITSGCSTNYADSVKGRFTISRDNAKNTVYLQMNSLKPEDTAVYYCNKVFFWSRYKGYYYWGQGTQVTVSS | high polyreactivity
13 | QVQLVESGGGLVQAGGSLRLICAASGRTFTYYDMGWYRQAPGKERELVAGITARGGSTYADSVKGRFTISRDNAKNTVYLQMNSLKPEDTAVYYCAADLYTSLDSTYDYWGQGTQVTVSS | low polyreactivity
14 | QVQLVESGGGLVQAGGSLRLICAASGRTFVKNAMGWSRQAPGKERELVAAIDRGSRTNYADSVKGRFTISRDNAKNTVYLQMNSLKPEDTAVYYCATRYRVRDDQTGTWSIFGYWGQGTQVTVSS | high polyreactivity
15 | QVQLVESGGGLVQAGGSLRLICAASGRTFYRNDMGWSRQAPGKERELVAAISGSGGTTYYADSVKGRFTISRYNAKNTVYLQMNSLNPEDTAVDYCAVDGNFFGEVRPYDYWGQGTQVTVSS | low polyreactivity
16 | QVQLVESGGGLVQAGGSLRLICAASGRTFYYYGMGWYRQAPGKERELVASITNGGNTNYADSVKGRFTISRDNAKNPVYLQKHSLYPEDTAVYYCAKDVPYWRPVVRYDYWGQGTQVTVSS | low polyreactivity
17 | QVQLVESGGGLVQAGGSLRLICAASGRTLWWYAMGWYRQAPGKESELVAAIDYSDGNTYYADSVKGRFTISRDYAKNTVYLQMNSLKPEDTAVYFCAAEGYYNYGSYYWGQGTQVTVSS | high polyreactivity
18 | QVQLVESGGGLVQAGGSLRLICAASGRTLYLYAMGWSRQAPGKEPELVAAIDWRGTSTYYADSVKGRFTISRDNAKNTVYLQMNSLKPEDTAFYYCNARFRSYLRWYQRDYWGQGTQVTVSS | low polyreactivity
19 | QVQLVESGGGLVQAGGSLRLICAASGRTYHYYTLGWYRQSPGKERELVARISLGVGSTYYADSVKGRFTISRDNAKNTVDLQMYTLIPEDTAVYYCNAVWYKSFVKGVYGRVDWGQGTQVTVSS | low polyreactivity
20 | QVQLVESGGGLVQAGGSLRLICAASGSIFPFYAMGWYRQEPGKERELVAAITYSGGRTYYADSVKGRFTISRDNAKNTVYLQMNSLKPEDTAVYYCAVVVIFVRYGYWGQGTQVTVSS | low polyreactivity
21 | QVQLVESGGGLVQAGGSLRLICAASGSIFRLYAMGWYRPAPGKEREFVARIRWRGGSTNYADSVKGRFTISRDNAKNTVYLQMNCLKPVDTAVYYCAAKQGTVRAHTYVAWYDYWGQGTQVTVSS | high polyreactivity
22 | QVQLVESGGGLVQAGGSLRLICAASGSIFRLYAMGWYRQAPGKERELVAAIRWSGGRTYYADSVKGRFTISRDNAKNTVYLQMNSLKPEDTAVYYCAADYYLPAYPPQTFGYWGQGTQVTVSS | high polyreactivity

Row | Sequence | polyreactivity (PSR sort gate)
23 | QVQLVESGGGLVQAGGSLRLICAASGSIFRSYAMGWYRPAPGKERELVAAISSGGRTKYADSVKGRLTISRDNAKNTVYLQMNSLKPEDSAVYYCAARSVSATADFHYWGQGTQVTVSS | high polyreactivity
24 | QVQLVESGGGLVQAGGSLRLICAASGSIFRYYTMGWYRQGPGKERELVARISSSGSTNYADSVKGRFTISRDNAKNTVYLQMNSLKPEDTEVYYCAARAFSWAGYYYWGQGTQVTLSS | low polyreactivity
25 | QVQLVESGGGLVQAGGSLRLICAASGSIFSGYAMGWYRQAPGKERELVAAITTSGGSTYYADSVKGRFTISRENAKNTVYLPMNSLNPEDTSVYYCAAGWLYSRYARVYYWGQGTQVTLSS | high polyreactivity
26 | QVQLVESGGGLVQAGGSLRLICAASGSIFTSNVMGWYRQSPGKERELVAAITITGTTNYADSVKGRFTISRDNAKYTVYLLMNSLKPEDTAVYDCAARHKQHNRYDYWGQGTQVTVSS | low polyreactivity
27 | QVQLVESGGGLVQAGGSLRLICAASGSIFVGYAMGWYRQAPGKERELVAAISSNGGSTYYAYSVKGRFTISRDNAKNTVYLQMNSLKPEDTAVYYCAAGVRRVYASGHGAYGYWGQGTQVTVSS | low polyreactivity
28 | QVQLVESGGGLVQAGGSLRLICAASGSIFVLNAMGWYRQAPGKERELVAAITSGGSTYYADSVKGRFTISRDNAKNTVYLQMISLKPEDTAVYYCNALDLSPSYKYDYWGQGTQVTVSS | low polyreactivity
29 | QVQLVESGGGLVQAGGSLRLICAASGSIFWAYAMGWYRQAPGKERELVAAISSSGGRTYYADSVKGRFTISRDNAKNTVYFQMNSLNPEDTAVYYCAARSYSGYSPTFDYWGQGTQVTVSS | high polyreactivity
30 | QVQLVESGGGLVQAGGSLRLICAASGSIFYVYAMGWYRQSPGKERELDAAINTSGGSTFYADSVKGRFTISRDNAKNTVYLQMNSLKPEDTAVYYCAAERYRYRSTDTMGYWGQGTQVTVSS | low polyreactivity
31 | QVQLVESGGGLVQAGGSLRLICAASGSIITGYPMGWYRQAPGKERELVAGINSGTSTNFADSVKGRFTISRDNAKNTVFLQMNSMKPEDTAVYYCAKTAERRHYGVYRFDYWGQGTQVTVSS | low polyreactivity
32 | QVQLVESGGGLVQAGGSLRLICAASGSILDGNTMGWYRQAPGKERELVAAITWDGTSTYFADSVKGRFTISRDNAKNTVYLQMNSLKPEDTAVYYCAATKGYSDPSTGYYAYIHYDYWGQGTQVTVSS | low polyreactivity
33 | QVQLVESGGGLVQAGGSLRLICAASGSILSTYAMGWYREAPGKERELVADISGRVGSTYYADSVKGRFTISRDNAKNTDYLQMNSLKPEDTAVYYCAAALDYWPGYEYYYWGQGTQVTVSS | low polyreactivity
34 | QVQLVESGGGLVQAGGSLRLICAASGSISYYNAMGRYRQAPGKERELVADITSGGGTYYADSVMGGFTISRDNAKNTVFLQMNSLKPEDTAVYYCAKDYGFTGYGYWGQGTQVTVSS | low polyreactivity
35 | QVQLVESGGGLVQAGGSLRLICAASGSNFVGYAMGWYRQAPGKERELVAAISRTGASTYYADSVKGRFTISRDNAKNTVYLQMNSLKPEDTAVYYCAYYYSIYDYWGQGTQVTVSS | high polyreactivity
36 | QVQLVESGGGLVQAGGSLRLICAASGSTFASYAMGWYRQAPGKERELVAAITRRGGSTYYADSVKGRFTISRDNAKNTVYLQMNSLKPEDTAVYYCAAKWTPATYKFDYWGQGTQVTVSS | high polyreactivity
37 | QVQLVESGGGLVQAGGSLRLICAASGSTFELYAMGWYRQAPGKEREFVAAITYDSTYYADSVKGRFTISRDNAKNTVYLQMNSLKPEDTAVYYCAAAYWHYYYGWDMYYWGQGTQVTVSS | high polyreactivity
38 | QVQLVESGGGLVQAGGSLRLICAASGSTFEYSTMGWYRPAPGKERELVAAINSSGGRTYYADSVKGRFTISRDNAKNTVYLQMNSLKPEDTAVYYCNARWRSGPRAYDYWGQGTQVTLSS | high polyreactivity
39 | QVQLVESGGGLVQAGGSLRLICAASGSTFFDYAMGGYRQAPGKEREFVADIYSNGGSTYYADSVKGRFTFSRDNAKNSVYLQMNSLKPEDTAGYYCAAVLRPRQGRRYDYWGQGTQVTVSS | low polyreactivity
40 | QVQLVESGGGLVQAGGSLRLICAASGSTFFSYAMGWYRPAPGKERQLVAAITRSGGSTYYADSVKGRFTISRDNAKNTVFLQMNSLKPEDTAVYYCNADLGIGYDYWGQGTHVTVSS | high polyreactivity
41 | QVQLVESGGGLVQAGGSLRLICAASGSTFGPNGMGWYRQAPGKERELVARIDRIGGGTYYADSVKGRFTISRDNAKNTVYLQMNSLKPEDTAVYYCAADGPSPFIQGYAKGDYWGQGTQVTVSS | low polyreactivity
42 | QVQLVESGGGLVQAGGSLRLICAASGSTFGPYDMGWYRQAPGKERELVADITSGGSTYYADSVKGRFTISRDNAKNTVYLQMNSLKPEDTAVYYCAADRVWPYYQYDYWGQGTQVTVSS | low polyreactivity
43 | QVQLVESGGGLVQAGGSLRLICAASGSTFGRNAMGWYRQAPGKERELVAAITASGGTTYYADSVKGRFTISRDNAKNTVYLQMNSLKPEDTAVYYFARAGHFSFKYDYWGQGTQVTVSS | low polyreactivity
